Earlier results in publication PMC12023029.

Biological target: His50 (UniProt position 50, KEGVVHGVATV)
Assay: NMR (per title of cited reference 59)
Details: free monomer, disordered

alpha-synuclein (aSyn) (Homo sapiens (inferred; the article does not name the species and discusses Parkinson's disease patients))
pKa (150 mM salt, high salt): 6.5 | pKa (low salt, article gives '4' mM as the lower end of the salt change): 6.8
